Test results published in patent US6379894 (NOVIMAUNE S A, dated 1999).

Target: T1, purified and recombinant USF1 protein (UniProt P22415 1-310, limits assumed)
T1 construct: also called USF1 recombinant factor; USF1 recombinant proteins
Experiment: EMSA with recombinant proteins on radiolabelled NGE DNA probe, PhosphoImager
Description: We then analysed whether STAT1 and USF1 proteins formed the U complex co-operatively after induction by interferon γ. […] Further, adding increasing quantities of activated STAT1 to a given quantity of USF1 in the presence of an excess of free NGE probe encouraged the formation of STAT1/USF1 complexes rather than binding of USF1 alone.

T1 sequence (P22415 whole entry): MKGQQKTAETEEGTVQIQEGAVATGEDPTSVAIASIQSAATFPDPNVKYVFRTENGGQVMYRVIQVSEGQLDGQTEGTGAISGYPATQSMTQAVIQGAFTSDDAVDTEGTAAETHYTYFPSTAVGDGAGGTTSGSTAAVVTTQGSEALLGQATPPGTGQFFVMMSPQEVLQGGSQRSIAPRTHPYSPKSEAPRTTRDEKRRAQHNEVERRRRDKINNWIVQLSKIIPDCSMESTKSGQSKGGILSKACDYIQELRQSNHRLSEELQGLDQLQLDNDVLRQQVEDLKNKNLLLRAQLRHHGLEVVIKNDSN

B1: purified and activated recombinant STAT1 protein (other, UniProt P42224 1-750, looked up)
chain: MSQWYELQQLDSKFLEQVHQLYDDSFPMEIRQYLAQWLEKQDWEHAANDVSFATIRFHDLLSQLDDQYSRFSLENNFLLQHNIRKSKRNLQDNFQEDPIQMSMIIYSCLKEERKILENAQRFNQAQSGNIQSTVMLDKQKELDSKVRNVKDKVMCIEHEIKSLEDLQDEYDFKCKTLQNREHETNGVAKSDQKQEQLLLKKMYLMLDNKRKEVVHKIIELLNVTELTQNALINDELVEWKRRQQSACIGGPPNACLDQLQNWFTIVAESLQQVRQQLKKLEELEQKYTYEHDPITKNKQVLWDRTFSLFQQLIQSSFVVERQPCMPTHPQRPLVLKTGVQFTVKLRLLVKLQELNYNLKVKVLFDKDVNERNTVKGFRKFNILGTHTKVMNMEESTNGSLAAEFRHLQLKEQKNAGTRTNEGPLIVTEELHSLSFETQLCQPGLVIDLETTSLPVVVISNVSQLPSGWASILWYNMLVAEPRNLSFFLTPPCARWAQLSEVLSWQFSSVTKRGLNVDQLNMLGEKLLGPNASPDGLIPWTRFCKENINDKNFPFWLWIESILELIKKHLLPLWNDGCIMGFISKERERALLKDQQPGTFLLRFSESSREGAITFTWVERSQNGGEPDFHAVEPYTKKELSAVTFPDIIRNYKVMAAENIPENPLKYLYPNIDKDHAFGKYYSRPKEAPEPMELDGPKGTGYIKTELISVSEVHPSRLQTTDNLLPMSPEEFDEVSRIVGSVEFDSMMNTV
modifications: activated form (phosphorylated); the residue numbers are not given
notes: also called STAT1 factor
For B1, the “probe bound to the complex, as fold of the sum of probe bound to USF1 alone and STAT1 alone” value was ~2 fold.
